In general, Kd refers to the concentration at which binding is half-saturated. Low readings indicate tighter binding, high ones weaker binding. As usually defined, the koff is a measure of how fast the partners let go of each other. A low value points to a long-lived complex. A word on the kon: it is a measure of how fast the partners come together. Higher therefore signals faster complex formation.

This note sets out measurements from US20110052582A1 (Hoffmann-La Roche, published 2011).

Substitutions are numbered along the chain they refer to.

The chains are these.
B1: Humanized CUB4 Antibody No. 69 (antibody, IgG1, V domains shown)
VH: EVQLVESGGGLVQPGGSLRLSCAASGFTFNSYGMSWVRQAPGKGLEWVATISSGGSYKYYVDSVKGRFTISRDNAKNSLYLQMNSLRAEDTAVYYCARHPDYDGVWFAYWGQGTLVTVSS
VL: EIVLTQSPATLSLSPGERATMSCSVSSSVFYLHWYQQKPGQAPRLWIYDTSKLASGIPARFSGSGSGTDFTLTISSLEPEDFAVYYCQQWNSNPPTFGGGTKVEIK
notes: Human constant region; also called Antibody 69; hHC4-H / hLC-L2
B2: Humanized CUB4 Antibody No. 135 (antibody, IgG1, V domains shown)
VH: B1 VH
VL: DIQMTQSPSSLSASVGDRVTITCSVSSSVFYVHWYQQKPGKAPKLLIYDTSKLASGVPSRFSGSGSGTDFTFTISSLQPEDIATYYCQQWNSNPPTFGGGTKVEIK
notes: Human constant region, preferably IgG1; also called Antibody 135; hHC4-H / hLC-e
B3: Humanized CUB4 Antibody No. 80 (antibody, IgG1, V domains shown)
VH: B1 VH
VL: B1 VL with S24G, V25A, Q41L, A59D, S76R
notes: Only variable domains are tied to the antibody; Human constant region, preferably IgG1; also called hHC4-H / hLC-M
B4: Humanized CUB4 Antibody No. 47 (antibody, human IgG1, V domains shown)
VH: B1 VH
VL: B1 VL with M21L, S24R, V25A
notes: Only variable domains are tied to the antibody; also called humanized anti-CDCP1 antibody 47; hHC4-H / hLC-K
B5: chimeric (chHC4) CUB4 antibody comprising human constant region and mouse VH and VL (antibody, human IgG1, V domains shown)
VH: EVQLVESGGDLVKPGGSLKLSCAASGFTFNSYGMSWVRQTPDKRLEWVATISSGGSYTYYPDSVKGRFTISRDNAKNTLYLQMSSLKSEDTAMYYCARHPDYDGVWFAYWGQGTLVTVSA
VL: QIVLTQSPAIMSASPGEKVTMTCSVSSSVFYVHWYQQKSGTSPKRWIYDTSKLASGVPARFSGSGSGTSYSLTISSMEAEDAATYYCQQWNSNPPTFGGGTKLEIK

The first assay addresses T1, extracellular-domain-(ECD)-comprising fragment of human CDCP1 of SEQ ID NO: 30 (human, UniProt Q9H5V8 30-663).
T1 construct: also called CDCP1 ECD; CDCP1-ECD
T1 sequence: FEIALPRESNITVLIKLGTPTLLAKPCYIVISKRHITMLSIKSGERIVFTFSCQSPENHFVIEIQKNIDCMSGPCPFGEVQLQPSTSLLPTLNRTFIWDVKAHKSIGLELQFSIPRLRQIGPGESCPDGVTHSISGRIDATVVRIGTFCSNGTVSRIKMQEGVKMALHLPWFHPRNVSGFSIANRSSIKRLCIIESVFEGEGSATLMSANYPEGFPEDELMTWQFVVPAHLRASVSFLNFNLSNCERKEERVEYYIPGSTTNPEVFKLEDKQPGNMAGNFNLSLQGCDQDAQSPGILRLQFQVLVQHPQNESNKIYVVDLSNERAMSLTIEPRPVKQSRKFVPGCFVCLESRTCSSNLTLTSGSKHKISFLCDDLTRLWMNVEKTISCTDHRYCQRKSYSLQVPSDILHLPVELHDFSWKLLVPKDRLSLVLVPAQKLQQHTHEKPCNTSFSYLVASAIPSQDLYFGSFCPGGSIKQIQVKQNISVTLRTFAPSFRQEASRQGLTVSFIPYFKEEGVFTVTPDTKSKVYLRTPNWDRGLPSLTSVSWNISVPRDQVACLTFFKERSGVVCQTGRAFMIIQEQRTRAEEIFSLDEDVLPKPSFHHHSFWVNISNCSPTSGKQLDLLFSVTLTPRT
The assay can be described thus: SPR (Biacore T100), antibody captured, CDCP1 ECD as analyte, 25 C, Langmuir 1:1. The protocol: After conjugation, different anti-CDCP1 antibodies were injected at 25° C. at a flow rate of 5 μL/min, followed by a dilution series (0 nM to 1000 nM) of CDCP1 ECD at 30 μL/min. As running buffer for the binding experiment PBS/0.1% BSA was used. The chip was then regenerated with a 60s pulse of 10 mM glycine-HCl, pH 2.0 solution.
Calculation of thermodynamic parameters (KD, binding constant) and kinetic parameters (kₒₙ rate, koff rate) were calculated using a Langmuir 1:1 binding model.
(In general: SPR reads the build-up and loss of mass on a sensor chip optically.)
In the case of B1, the Kd worked out at 2.55 nM, the koff worked out at 0.00052 s⁻¹, the kon was 210000 M⁻¹ s⁻¹ and the t½ diss. came to 22.1 min.

In turn, B2 gave a Kd of 8.3 nM, a koff of 0.0011 s⁻¹, a kon of 140000 M⁻¹ s⁻¹ and a t½ diss. of 10.3 min.

B3 displayed a Kd of 3.53 nM, a dissociation rate constant (koff) of 0.00088 s⁻¹, a kon of 250000 M⁻¹ s⁻¹ and a t½ diss. of 13.1 min.

On to B4, for which the affinity, expressed as Kd, was 3.77 nM; the off-rate (koff) was determined as 0.00075 s⁻¹; the kon came to 200000 M⁻¹ s⁻¹; the t½ diss. stood at 15.4 min.

A further assay addresses T2, Human CDCP1 (CUB domain containing protein 1) on DU-145 cells (human, UniProt Q9H5V8 30-836).
T2 sequence: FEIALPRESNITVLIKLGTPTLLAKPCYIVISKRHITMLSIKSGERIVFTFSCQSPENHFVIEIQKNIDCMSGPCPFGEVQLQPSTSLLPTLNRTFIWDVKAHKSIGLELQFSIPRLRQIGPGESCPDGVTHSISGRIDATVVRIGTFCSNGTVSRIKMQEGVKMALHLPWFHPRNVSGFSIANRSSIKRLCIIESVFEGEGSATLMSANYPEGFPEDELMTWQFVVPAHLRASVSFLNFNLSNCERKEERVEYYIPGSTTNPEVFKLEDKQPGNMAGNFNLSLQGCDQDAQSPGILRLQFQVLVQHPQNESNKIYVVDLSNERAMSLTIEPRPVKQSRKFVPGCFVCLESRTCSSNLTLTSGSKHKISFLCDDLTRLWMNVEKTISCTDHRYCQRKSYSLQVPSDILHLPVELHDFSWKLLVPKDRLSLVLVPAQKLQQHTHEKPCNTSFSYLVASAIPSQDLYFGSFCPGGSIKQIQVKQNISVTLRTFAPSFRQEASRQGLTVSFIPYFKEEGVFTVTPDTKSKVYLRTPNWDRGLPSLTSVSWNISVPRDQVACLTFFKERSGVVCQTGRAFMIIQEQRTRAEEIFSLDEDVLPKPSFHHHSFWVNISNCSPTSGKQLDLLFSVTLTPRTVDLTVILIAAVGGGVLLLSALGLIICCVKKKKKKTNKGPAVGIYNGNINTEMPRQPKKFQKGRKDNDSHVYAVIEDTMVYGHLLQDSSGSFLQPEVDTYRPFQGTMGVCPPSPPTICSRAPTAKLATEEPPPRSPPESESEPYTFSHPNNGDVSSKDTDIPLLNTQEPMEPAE
Nature of the assay: cell-based or functional assay.
Turning to B5, the “Percent (%) stimulation of CDCP1 phosphorylation in DU-145 cells (Western blot, densitometry)” value (from here on “Percent (%) stimulation”) was 100%.

With B1, the “Percent (%) stimulation” value was 112%.

B2: the “Percent (%) stimulation” value came to 72%.

Consider B3, for which the “Percent (%) stimulation” value turned out to be 133%.

Turning to B4, the “Percent (%) stimulation” value amounted to 96%.

In a further assay the target is T3, Soluble CDCP1 extracellular domain (CDCP1-ECD) (SEQ ID NO:30) fused to Streptavidin Binding Protein (SBP) (human, UniProt Q9H5V8 30-663).
T3 construct: also called SBP-CDCP1-ECD
T3 sequence: T1 sequence
Nature of the assay: ELISA on captured SBP-CDCP1-ECD, ratio relative to chimeric CUB4 (chHC4). In outline: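 Streptavidin plates coated overnight at 2–8° C with SBP-CDCP1-ECD HEK293 supernatant (1:15–1:40). Antibodies, undiluted or 12-step dilution, bound 90 min at room temperature; HRP anti-human IgG 1 h, ABTS read at 405/492 nm, signal expressed relative to chimeric chHC4 reference.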
On the technique in general: An ELISA detects its analyte on a solid surface through an enzyme-linked reagent.
B1: the relative binding ratio is 0.69.

B2: the relative binding ratio was 0.47.

In the case of B3, the relative binding ratio turned out to be 0.56.

For B4, the relative binding ratio came out at 0.46.
